Measured values from patent publication US20170152290A1.

Assays:
[1] = target: LRP1 receptor (Low Density Lipoprotein Receptor-Related Protein) on Vero cells; assay: cell-based or functional assay
[2] = target: T1, sLRP1-CIV (cluster IV of LRP1 fused to the constant region of a human IgG1) (human); assay: SPR (Biacore X), sLRP1-CIV immobilised on CM5 chip, peptide at 20 µM; RU at 270 s
[3] = target: T1, sLRP1-CIV (cluster IV of LRP1 fused to …); assay: SPR (Biacore X), sLRP1-CIV immobilised on CM5 chip, peptide at 20 µM; RU observed at 160 s

Binder	Antiviral activity in Vero cells, IC50 (plaque reduction, DENV2) [1] [µM]	RU (at 270 s) [2] [RU]	further results
CVYWTRPKWKVNWCKKK (modifications not checked) [beta hairpin peptide PHB2]	12	861	–
CIEVNWTEPDKKVNWFICKKK (modifications not checked) [beta hairpin peptide PHB3]	17	–	–
CSNIVIGIGDKALKINACKKK (modifications not checked) [peptide HDIII3CLW-]	> 100	–	–
FWNWKWEPNKWTWNVEGGKKK (modifications not checked) [beta hairpin peptide PHB6]	33	–	–
CIEVYVTINGKKYNWFICKKK (modifications not checked) [beta hairpin peptide PHB9]	7	1080	–
CSNIVIGIGDKALAINWCKKK (modifications not checked) [peptide HDIII3CLK-]	> 100	–	RU (at 160 s) [3]: 276 RU
CVNVTINGKKYNWCKKK (modifications not checked) [beta hairpin peptide PHB7]	79	–	–
CIEVYWTRPKWKVNWFICKKK (modifications not checked) [beta hairpin peptide PHB4]	0.003	3600	Antiviral activity IC50 vs DENV1 (plaque reduction, Vero cells) [1]: 2 nM; Antiviral activity IC50 vs DENV2 (plaque reduction, Vero cells) [1]: 3 nM; Antiviral activity IC50 vs DENV3 (plaque reduction, Vero cells) [1]: 5 nM; Antiviral activity IC50 vs DENV4 (plaque reduction, Vero cells) [1]: 0.01 µM
CVNWTEPDKKVNWCKKK (modifications not checked) [beta hairpin peptide PHB1]	75	117	–
FWNWKWEKNKWTWNVEGGKKK (modifications not checked) [beta hairpin peptide PHB5]	17	175	–
SSNIVIGIGDKALKINWSKKK (modifications not checked) [peptide HDIII3CLC-]	> 100	–	–
CIEVNVTINGKKYNWFICKKK (modifications not checked) [beta hairpin peptide PHB8]	15	–	–
CSNIVIGIGDKALKINWCKKK (modifications not checked) [peptide HDIII3CL2]	20	–	RU (at 160 s) [3]: 1010 RU
